The DeepSol protein solubility set

Test: soluble on expression in E. coli; label from the status in PepcDB or PDB records

| Sequence | soluble on expression in E. coli |
| --- | --- |
| MSLTLSPTTIFPARCIHTMNATQPRATHVAVREGRILDVGDASLREAWPDAVVDSRFSDKVLLPGLIEGHSHLLEGGMWRFVYVGYYDRRGPDGRVWPGLKSYEAVIERLRAAEALMPDAQAPLLAWGFDPIHFGGQRMTTCHLDQVSKTRRIVVLHASVHLLNVNTAMLRQADIHAGLRIDGIVRAADGTPTGELQEFAAMFMVFKHIGNVFFDAGQSEEGIRNFAKIAQQAGVTTATDLSHALADDMVDNLVRVTGEDDFPLRLVAAYSPMRDMNGRSVDRVVRATQRNTAKLHFGLVKLVIDGSIQGYTARVRWPGYHNGAPNGMWIIAPQQLRELLMEYHKAGLTIHIHTNGDEATEVAMDALESVLAEYPRWDHRHTLQHCQMADAAQFRRMARLGMCANLFANHLYFWGDAHYTDTLGPARAFRMNAAKTALQAGVPISLHSDAPITPIGPLFTAWCAVNRVTAGGRILGSQERIPVMDALHAMTLGAAYTLKLDHLIGSIEVGKLADFAVLEADPLEVAPQDLAGIGIWGTVLGGRSFPAPQLSEGHHHHHH | soluble |
| MHFHVNNVVTSSQIDDVLVKICTGPLFDNGTPFITYGCVLHLSSERGIIRTFDEKLCLFELKDLNMDGVVDMTDVLPLGCTLKFFATRQNHHTFTASNVSPICEPAAQLIFLNSTEMNVITPDFTSTGSSNHYSVEKERFAYVRILELFQQQAVLSLPLSSMISELGKFGEDDVSQYIGISDEERGMFIKRRTHLFTVGWNDLVTLQSPDFYQAIVLILSYILCNGGVTSTENVFEFYQTDNVPLSVRQRTGSDMNSFREIIDFHSWAFTLSSHGTYVSAKRNLPHFDYMSFFEGIVCTATPQRHQKSKLLKHPPGLQIPLLNTRAQALGQASMHQQQQEHISNPYQGYQPYLHREDMTNGMKKPTGTLIDGANQKHCFGMQVSSPDRNAFEKPSVFGHTWGDVIAFNKNSANFSRGMQSKRRYNLSSMFRNLKYSGFRSSIDSTSSSDDSQSLDNCSTSGVNNMLIGCGPQMY | not soluble |
| MAHHHHHHMFNYRREVLLDLWRKMPEAAACETVAPPEAVKGEEKRQQSVVKTQLDWLSEELKLSSSIIQSDYKVYAAFVHRRWVFMQLRRLAESALGNVGKRSKPAAPAGCQLGECAAAGEFDLPEEVLFWAKALLKEKRQGDALLAMDERNFHAWEFRRWVMYQLGQMEDLFVQSSIQFGPAVVGIKEREFASYMNGSAKSDRPRDLFFTPTEVKELNFTSAAVRRNFSNYSAWHQRGFIMQGALRRLQQRQWREEEADNNLRDGMLSQAWGQLEEDLTLLTTAIYCDPLDQSAWYYAKFLIHASKQLTALPFASTAVPIDITAKLDEVCLDLVGEERRLGEDMETYWPYLHLATSLLTSIKKSNDGNSSDVISDRQSALKLAREVWAALQPQGRHVNGDDDCIKCLQELCAHLTTADPLRAGMYKYFLSEVTTA | not soluble |
| MKKLEVKDLKENFFEAIGKEWMLVTAGTKEKFNTMTASWGGIGWLWNKPVAFVFVRPERYTYEFIEKSDYLTLSFLGEANKKIHAVCGSKSGRDTDKVKATGLKPVFTEQGNVLFEQARLSLEGRKLYADNIKPECFLDKESLEKWYDDAHGGFHKMYIVEIENIWEGD | not soluble |
| MEFREQVLNLLAEVAENDIVKENPDVEIFEEGIIDSFQTVGLLLEIQNKLDIEVSIMDFDRDEWATPNKIVEALEELR | not soluble |
| MGHHHHHHSHMLALATSIHQSQLDRERILSLEQRVVELQQTLAQKDQALGKLEQSLRLMEEASFDGTFLWKITNVTRRCHESACGRTVSLFSPAFYTAKYGYKLCLRLYLNGDGTGKRTHLSLFIVIMRGEYDALLPWPFRNKVTFMLLDQNNREHAIDAFRPDLSSASFQRPQSETNVASGCPLFFPLSKLQSPKHAYVKDDTMFLKCIVETST | not soluble |
| MKYPFYYCCDNLDIKSISVIGDFNNWDGGKNILKRHDDGTWMTEIELSPGKYRYKFLINDSILFNDPNALIYTYDDKGGTASFIIIDESNKRIINTKPASLNIESYSFLSVDKELSYCENGERKCYKDKHSSIMLKIGFSDITGLHTVNAIWYAPNNEIHEIQESVLNDGEKNENRKNEALFQININDDTIAGEWKLQIFINGSLALEDSFTVELKQPEVLDKTALDDAAMLSADLEVPDFLIEEDMQNEFEAPEFEVESNLQTNAEKEEISEEDLLGLFDDIKEIDMPEKDTSGNQKTPAPDETEMPADGNIMNLFDEIRISELKDEKAQDTENNTESTSKEAEESDSAIDELLELREFIDSSQNSEKDSIESSGGKSGEEANEEDISDIFIDIKNRTD | not soluble |
| MGSDKIHHHHHHMQLEVMEHYGIIKYFRDADYFETEHQRRIFNQLKKVIPEGQLIALSGVVGSGKTTTLSRLQDLLAKEKKVIVAKSLSVEKTKTNLGTLITALFYDVSGDKDYRVPKLGEKRERELRDLIQDVKKPVVLLVDEAHDLHHRTLTGLKRLMEVIRDGGGKLSILLAGHPKLKNDLKGPTMEEVGYRTIVVSLDAMQGNLREYVYWLLDNCTDDKTKPTDVIEEQAIDYLVERLTTPLQIEQHLSLALEEGFNVGVKPITVDVLDLTLSRRINDIEPRLIRHGYSEKVLVDQFHYKPAELRKFFKGELDANRVKEITQDLREAGLPI | not soluble |
| MPDEAVDGSTPDQGKKNNNGRGRGQGSGGNRGRGGSTANNNASRRPNPARQNQSSRQPTKVDMKKYERMISAAHTNFSDIPCGQKSIDCDICCKKNDVFGIGSCRHPVCAECVIRMRILGNSKTCPVCRSDIDILSFCTTDDDLANVPLSFKKTAHPDEDRYDIRFSNKIAGTKYEKYLAHVCKICKTDDGERLEFPSFMSLRQHMASRHEQSYCHICTDNLNLFSRERKTYTRDQLQRHMRSGDFDDKSFKGHPQCLFCEQKFLDEENRYRHLRKDHFFCQFCESDGTMTNVFFGKHDGLKKHYKEHHYICETEECREMGIAFANKFELDLHRANEHAERRNLIELGFGQRPSDPGRPIGRGRGLRSNEPPPPPVPRERIAVVQRQVETNPQSDPSQFTTVRSAQSKGVFTSTRSAYTSNQQEFPSLAPQAPPPNVRSSEFPRLNKANKPAAPAAPAVVDHFPSLGDSSSSSSAPPLRIKVPPLVKKRQPPPPAPAPQKAKASSARQNAPREEDDEYISRRDVPQAVVKVNNSLLRFDTVDDRVIPQNAKSNIQMIQRVDQKSAAESSSSAPSSGRLDFPALPAASAPMMPANSSWLNSKNSKIKSGVISSVSVPANYSKATQNKNKKKNKISVPKTEVWSSLGPPPDSAVASVPVETWQDIPLSKEAQLEKEKRERKEDWARKKAEIQARVAAASKDKSNEVDSDSEPEPARPITPPVHHSNIEKSESSEWTMANSKSGDSLKNAQLMANQKKNKKNKNNMEIPSANKVPSSQSSIVPSAPKVDSLIVEKVVAKTEPKNDENQDKPDLWNMPKLPSMTSMFSSFSLSGMFGMGTSYSDSSSMAAPPPGLENVVLTPPPGLGFPSPKSDDISFASAPILSHDDVKAKRERLEAEKQKNQKEAEKEDDGWVTTSKPKNNKKNNKK | not soluble |
| MTTPNTQLWEVFIRSRNGLAHKHVGSLHAADATLALQAARDIYTRRGEGLSIWVVPSNAITASDPAEAGMLFEPAESKIYRHPTFYEVPDEVGHM | not soluble |
| MAHHHHHHSLSELVIESWRADDKALWEQKIIPAFEAANPGIKVKFNPVPNVNYTPTLWENLKAGKAGDLITCRPFDDSLALFKAGHLAEITEMAGMENFPSFAQAPWQTDSGAQTFCVPMASVIHGFFYNKKIFNELGLSVPQTREQFFTVLDKVKADGRYIPLSMSGSESWVASELGYQNIGPNYWKGEDGRLALINGQEHLDDSQYVKVFEELARWRAYLGEDGELRDYGTSNELFTSGKAALYVAGSWEIAPFTDKVDFGVMRPPVAKQGDGCFFTDHTDIGMGMNPASKNPQAAMAFLQWLTTPEFAELYTNSLPGFFSLSNHFFDVTNPAAREMMEWRDQCDSTIRVATQILSRGQPKLGDELAEVSQAVLVGKMTPTAAAERLEQGLKRWYAPHQTRKAKEQECQCVEPISPTTRLNTLPVVDIAPVVASDPVPPTEATILSEEG | not soluble |
| MMKAIPVEQAVGTVLCHDLTRIVPGEHKGRAFRKGHIVTEADIPLLLSIGKEHLYVLNLEAHQLHEDEAALRIATAAAGPGISLSEVSEGRINFMASPGLLCVDVEALNAINAIDEVALATMHSGQFIAARRAVAGTRVVPLVIDESKIRQVERICAASYPVVQVKPLRSHSIGVVTTGSEIFHGRIKDKFGPVMRDKFAALGSSVMGQRLVGDAPEATRDAILSFIGEGADMVVVTGGMSVDPDDQTPASIRATGAEVVTYGSPTFPGVMFMLAYLNDIPVLGLPGCVMYYRASIFDLVVPRLLAGERLARRDITSLGHGGFCAGCETCHHPVCPFGKLEHHHHHH | not soluble |
| MAHHHHHHMAAMLRLTFALRLSSKQLSHGPLATHTRKQSFRQSKTALQVSRLRSQTQRANFNLQQELNRDFGARQYAFAQGRRSMQRAAEDLMYDRAYRAERHRGRAGEVYRTTKDRAAEVATARQLLQMQESTRRLMKKGRTQRVEAFRAQKQWNR | not soluble |
| SLLSPAAERSQGSLLSVIMEILKDQSHRELFGLELGSGTGQHVVHFAQEMPFVTWLPSDTKEESRNSIRAYIEATKAKTVLEPVHLDASEPWDKWAGLPQNSCDIILAINLLQYTPFSTAEGVFKGSGQILKQNGLLMTYGPYAINGTITPICNEQLDETLRQMNPEWGLPDIDVLRQLAFSNGMRMERMIEMPESNKCLVFRKL | soluble |
| MDHHHHHHHHASENLYFQGHMNLDLAYRSFVLGVAGHPQVERLIKHRAKGLVRRYVAGETLEEALKAAEALEREGVHAILDLLGEMVRTEEEARAFQRGLLELVWALAGKPWPKYISLKLTQLGLDLSEDLALALLREVLREAEPRGVFVRLDMEDSPRVEATLRLYRALREEGFSQVGIVLQSYLYRTEKDLLDLLPYRPNLRLVKGAYREPKEVAFPDKRLIDAEYLHLGKLALKEGLYVAFATHDPRIIAELKRYTEAMGIPRSRFEFQFLYGVRPEEQRRLAREGYTVRAYVPYGRDWYPYLTRRIAERPENLLLVLRSLVSG | soluble |
| MIFVLDVGNTNAVLGVFEEGELRQHWRMETDRHKTEDEYGMLVKQLLEHEGLSFEDVKGIIVSSVVPPIMFALERMCEKYFKIKPLVVGPGIKTGLNIKYENPREVGADRIVNAVAGIHLYGSPLIIVDFGTATTYCYINEEKHYMGGVITPGIMISAEALYSRAAKLPRIEITKPSSVVGKNTVSAMQSGILYGYVGQVEGIVKRMKEEARQEPKVIATGGLAKLISEESNVIDIVDPFLTLKGLYMLYERNANLQHEKGE | not soluble |
| MAHHHHHHMKPSQPSYDKRAYQTIYPQYLDAELTPHDGRRLTRTQAVDDPTTNEVVEALKELGYTDIFVEPSASFPRSQGSIKYIMPPKGCVKVAIKRPKGEHYIPKSDFDTQTRGVTVEDIPNKMELLRRVSALIKIQHALKKQAEAAAASQTANTRKK | soluble |
| MNKAINIKKTAPLEVLHSELPYTQDPTALFHALCAGRSDCLLLESAEIDSKQNLKSLLLVDAAVRIVCEGHQVTYHALSANGQALLNIIHSNLTDRIPCKVEKAKLTLTFSTPCDTLDEDSRLREASSFDALRLVQHSFDLTDHGKFALFLGGLFAYDLVANFEPLGEAPADNQCPDYVFYVAETLMVIDHQRETCQLQATQFQPGDALHSQLKSRMREIRAQVNQKLPLPSAQSLSDVEVTTNISDAAFCDIVRDLKQYVVKGDVFQVVPSRRFRLPCPSPLAAYQRLKQSNPSPYMFYMQDERFTLFGASPESALKYEMHTNQVEIYPIAGTRRRGKRADGSIDFDLDSRIELELRTDKKENAEHMMLVDLARNDVARISQAGTRHVADLLQVDRYSHVMHLVSRVVGQLREDLDALHAYQACMNMGTLTGAPKIRAMQLIRDVEQARRGSYGGAVGYLTGEGDLDTCIVIRSAYVENGIAQVQAGAGVVYDSDPQAEADETRGKAQAVISAILYAHQGKE | not soluble |
